For this experiment, the target named is Thermococcus celer 30S small ribosomal subunit (T. celer (endogenous in T. celer cells)) (UniProt P29161). The experiment in a line: cryo-EM structure; post-splitting complex from 1 nmol T. celer 70S split by ABCE1^IIEA (8 uM), aPelota and aRF1 (5 uM each), 0.5 mM AMP-PNP, 50 mM HEPES-KOH pH 7.5, 30 mM KCl, 10 mM MgCl2, 2 mM DTT, 65 °C 15 min; cross-linked with 1% formaldehyde; 30S fractions of a 10-30% sucrose gradient.

For the substance “ABCE1^IIEA (E238A/E485A), hydrolysis-deficient ABCE1 from Saccharolobus solfataricus (from UniProt Q980K5 1-594) (enzyme)”, the percent of 30S particles associated with ABCE1 (3D classification) stood at 97%.
